Consider 1 molecule from US11274309B2 (dated 2022).

One assay deals with T1, peptide on HLA-A*02:01 (human).
T1 peptide: VYALPLKML
The experiment in a line: activation reporter or marker.

The target in another assay is T2, peptide on HLA-A*24:02 (human).
T2 peptide: VYALPLKML
The experiment in a line: activation reporter or marker.

B1: JG9-TCR (TCR, V domains shown)
Valpha: GQQLNQSPQSMFIQEGEDVSMNCTSSSIFNTWLWYKQEPGEGPVLLIALYKAGELTSNGRLTAQFGITRKDSFLNISASIPSDVGIYFCAGPMKTSYDKVIFGPGTSLSVIP
Vbeta: DAGVIQSPRHEVTEMGQEVTLRCKPISGHDYLFWYRQTMMRGLELLIYFNNNVPIDDSGMPEDRFSAKMPNASFSTLKIQPSEPRDSAVYFCASSSANYGYTFGSGTRLTVV
With B1, the binding result with peptide on HLA-A*02:01 and with peptide on HLA-A*24:02 was “no recognition” throughout.
